Reference: the RNAGym collection of RNA variant scans (doi:10.1073/pnas.2313332121)
Variants at the floor of the assay were thinned out.

B1: TPR 5TU (parent)
chain: GGAUCUUCUCGAUCUAACAAAAAAGACAAAUCUGCCACAAAGCUUGAGAGCAUCUUCGGAUGCAGAGGCGGCAGCCUUCGGUGGCGCGAUAGCGCCAACGUUCUCAACUAUGACACGCAAAACGCGUGCUCCGUUGAAUGGAGUUUAUCAUG

Variants of: B1
Assay: polymerase ribozyme fitness, log enrichment relative to wild type (log ratio); higher = more active; in vitro selection for triplet polymerase activity
How it was run: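 Streptavidin-bead capture of gel-excised extended constructs, followed by RT-PCR, closed a single triplicate in vitro selection round. That round began by annealing PCR-built, transcribed mutant libraries of each subunit of a heterodimeric triplet polymerase ribozyme with a biotinylated primer, the partner subunit and triplets, then incubating them frozen at −7 °C. After Illumina sequencing of inputs and outputs, genotypes needed ≥10 input reads and ≥1 read per output. Fitness is the base-2 logarithm of genotype enrichment over wild-type enrichment, using inverse-variance-weighted replicate averages.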

Variant	polymerase ribozyme fitness (log ratio)
A40G U53G A73G G81U G94A	≤ -4.2
A40G U55A C76G G81A G86U C149U	≤ -4.2
A40C C75U C116U A119C	-1.75
A39U U61C C96A	-3.93
A40C C96U U144G U151G	-3.73
A40G U82G	-1.38
A40C U44G C63U C95U C103G A115G A142C	≤ -4.2
A40U C87U	-0.375
A40U C87A	-3.87
A40C G143A	-0.684
A40U C57A G86A A110U C125A G141U	≤ -4.2
A39U U44A C79G C132G U139A	≤ -4.2
A40C U53G A66G A119G	≤ -4.2
A40C U55A A89C	0.0362
A40C U45A G50A A73U G92A	≤ -4.2
A39U G86U C114U A120U G140A	≤ -4.2
A40C C93A C99U G133C	-3.98
A40C A41U C99U C125A	-2.04
A40U G86A	-0.914
A40U G94U G136C	-4.02
A40U U82G G92A	-2.82

Variant	polymerase ribozyme fitness (log ratio)
A39U G58C G88A	≤ -4.2
A40U G62U C72G G80C U82C A138U	≤ -4.2
A40C A113U C118U G136A	-2.68
A39U U55G U82C C85U U146C	-2.49
A41C A47C C96U C103U A115G	-3.11
A40U U45A C69U G83U G141A U144A	≤ -4.2
A40C C75G U82G C93G A138G G140C	≤ -4.2
A40G C54U C76U A91C C95G G143U	≤ -4.2
A40G G124U	-2.64
A40C U82C G94U	-0.916
A40C A52G C79A C85U C99A A106G A142U G152U	≤ -4.2
A41C A49C	-4.01
A40G C85U	-2.16
A40G C57A C72U C87A	≤ -4.2
A40G A41C C43A G83C C87G C96A	≤ -4.2
A40U C75G C85G U135G G140U	≤ -4.2
A40U G50C C85G C99U A137U U148G	≤ -4.2
A39U C76A G83U C125U	≤ -4.2
A39U U101C U144G	-2.52
A40G G94C	-1.82
A40U C54A C87U A89C	-2.61

Variant	polymerase ribozyme fitness (log ratio)
A40C C63U U82G G83C C96G A120C A121U U144A	-0.868
A40U G50C G67C C103A C129G U144G	≤ -4.2
A39U C76A G86C G126A C132U U134A	≤ -4.2
A40C G81A	0.951
A40U U61A C79A U104G	≤ -4.2
A40C C85U C95U A98G G126U	-1.37
A40U C63U G70C	-2.97
A40U A91G	-3.33
A40C C51A G86C U139C	≤ -4.2
A40U G68A	-4.03
A40C G84A U90G G100C	≤ -4.2
A40U G86A G141A	-1.06
A40C G141A	0.793
A40U G59U C75A C85U U109A	≤ -4.2
A40C A122G	0.759
A40G C116G A120U	-1.72
A39U C85U	-2.27
A40U G42U C69U A89G A91U A106C C149U	≤ -4.2
A40C A64G G83U G133C A138C	≤ -4.2
A40G C69G G70U G83A A150U	≤ -4.2
A40U C63G	0.0879

Variant	polymerase ribozyme fitness (log ratio)
A40G U45A A47C C99U A115C G124C	≤ -4.2
A40U C51U C93U	-1.15
A40G U90G C95A G112C U127C	≤ -4.2
A40G G70C C85A	≤ -4.2
A40C A52G U82A G92U A106U	-3.38
A40U C99U G117C	-0.515
A40U C57U C76A	-0.244
A40U C79G A91G	≤ -4.2
A40U G59C	0.561
A40U C125U G128C	≤ -4.2
A40G C85U C118A	-2.77
A40C U44A A60G C69U C72U G83C U104A U127G G152A	≤ -4.2
A39U G71C G84A C103U	≤ -4.2
A40U U55A C85A C116A	-0.563
A40U G62A C131G G136A	-3.43
A40G G67U C85A A98U U144C U145A	≤ -4.2
A39U G92C U127A	≤ -4.2
A39U G58C G74U A91G C123G G133A U146C	≤ -4.2
A40U C51U G83C	-0.981
A40C C51U C57A G94U C114G A150G	≤ -4.2
A40C C69G G80A	-0.716
